{"source": "paper PMC3384305", "about": "(Nucleic Acids Research, 2012)", "binders": {"B1": {"name": "C-terminal His6-tagged NHTF transcription factor (natural protein, N. meningitidis MC58)", "chain": "MMGNKLTLPAELPDEQDLRAVLAYNMRLFRVNKGWSQEELARQCGLDRTYVSAVERKRWNIALSNIEKMAAALGVAAYQLLLPPQERLKLMTNSADTRQMPSESGI"}, "B2": {"name": "Specific (mutant) 25-mer (dsDNA)", "DNA 1": "TACCCGAAGTAAAATCCGTAACAGC", "DNA 2": "GCTGTTACGGATTTTACTTCGGGTA"}, "B3": {"name": "DMP19 (NMB0541), without any tag (natural protein, N. meningitidis MC58, UniProt Q9K0P4 1-165, looked up)", "chain": "MTALTLPEDIRQQEPSALLYTLVSAYLEHTAQTGDESLSCLSDDQHTLTAFCYLDSQVEEGGFVQLIASGYGEYIFRNPLADSLRRWKIKAVPKVLDKAKALYEQHGKTIETLADGGADIPSLRKQFPEFEEWDGAYYEAAEQDLPLLAEHIQSNWETFAHIGQA"}, "B4": {"name": "NHTF 5'UTR fragment 3 (dsDNA)", "DNA 1": "CTTTTTTTTGGCTTTTATGTGAAGTAAAATCCGTAACAGC", "DNA 2": "GCTGTTACGGATTTTACTTCACATAAAAGCCAAAAAAAAG"}, "B5": {"name": "NHTF 5'UTR fragment 4 (dsDNA)", "DNA 1": "AAATGCTTAACTTTAACCATTTATCTGGAAGCAA", "DNA 2": "TTGCTTCCAGATAAATGGTTAAAGTTAAGCATTT"}, "B6": {"name": "Nonspecific 25-mer (dsDNA)", "DNA 1": "ACCCCTTTTTTTTGGCTTTTATGTG", "DNA 2": "CACATAAAAGCCAAAAAAAAGGGGT"}, "B7": {"name": "Specific 25-mer (dsDNA)", "DNA 1": "TATGTGAAGTAAAATCCGTAACAGC", "DNA 2": "GCTGTTACGGATTTTACTTCACATA"}, "B8": {"name": "NHTF 5'UTR fragment 2 (dsDNA)", "DNA 1": "TTGATGTGTGTGTGTTTGGGTGTGGCTGCCGCCACCC", "DNA 2": "GGGTGGCGGCAGCCACACCCAAACACACACACATCAA"}, "B9": {"name": "NHTF 5'UTR fragment 1 (dsDNA)", "DNA 1": "TGTTTCCCAATCTGTCTTGATTTTATCTCTTTCCTC", "DNA 2": "GAGGAAAGAGATAAAATCAAGACAGATTGGGAAACA"}}, "key": {"SEC [1]": {"biological_target": "the molecule itself", "assay": "SEC"}, "NHTF (NHTF C-His) [2]": {"biological_target": "T1, NHTF (NHTF C-His) (UniProt Q7DDD9 1-106)", "T1 sequence": "B1 chain", "assay": "EMSA"}, "SEC [3]": {"biological_target": "the molecule itself", "assay": "SEC", "remark": "listed apart in the source"}, "NHTF (NHTF C-His) [4]": {"biological_target": "T1, NHTF (NHTF C-His)", "assay": "EMSA", "remark": "listed apart in the source"}}, "note": "Like-named read-outs stand apart in the source and are kept apart here.", "data": [{"binder": "B1", "values": [{"measurement": "stoichiometry N", "setting": "SEC [1]", "value": 2}]}, {"binder": "B2", "values": [{"measurement": "binding result", "setting": "NHTF (NHTF C-His) [2]", "value": "no binding"}]}, {"binder": "B3", "values": [{"measurement": "stoichiometry N", "setting": "SEC [3]", "value": 2}]}, {"binder": "B4", "values": [{"measurement": "binding result", "setting": "NHTF (NHTF C-His) [2]", "value": "binds"}]}, {"binder": "B5", "values": [{"measurement": "binding result", "setting": "NHTF (NHTF C-His) [2]", "value": "no binding"}]}, {"binder": "B6", "values": [{"measurement": "binding result", "setting": "NHTF (NHTF C-His) [4]", "value": "no binding"}]}, {"binder": "B7", "values": [{"measurement": "binding result", "setting": "NHTF (NHTF C-His) [2]", "value": "binds"}]}, {"binder": "B8", "values": [{"measurement": "binding result", "setting": "NHTF (NHTF C-His) [2]", "value": "no binding"}]}, {"binder": "B9", "values": [{"measurement": "binding result", "setting": "NHTF (NHTF C-His) [2]", "value": "no binding"}]}]}
